Reference: patent US20210238569A1

Key:
[1] = biological target: protease-activated RNA polymerase (PA-RNAP) including the HCV protease substrate (UniProt P00806)
[2] = test system: TEV protease wild-type substrate sequence ENLYFQSA
[3] = test system: target substrate sequence ENLYFESA
[4] = biological target: protease-activated RNA polymerase (PA-RNAP) including the TEV protease substrate (UniProt P00806)
protease-activated RNA polymerase (PA-RNAP) including the TEV protease substrate, sequence (P00806 whole entry, looked up): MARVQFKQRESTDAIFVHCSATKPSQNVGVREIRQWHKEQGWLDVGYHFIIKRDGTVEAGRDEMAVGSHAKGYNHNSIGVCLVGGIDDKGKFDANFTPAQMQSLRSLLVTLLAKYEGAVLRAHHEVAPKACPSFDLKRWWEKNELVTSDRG

protease-activated RNA polymerase (PA-RNAP) including the HCV protease substrate, sequence (P00806 whole entry, looked up): as above

Substance | Western blot of PA-RNAP sensor activation (proteolysis) [1] | cleavage of substrate sequence [2] | cleavage of substrate sequence [3] | Western blot of PA-RNAP sensor activation (proteolysis) [4]
hepatitis C virus (HCV) protease, constitutively active construct that includes the NS4a cofactor peptide | the PA-RNAP sensor is proteolyzed to a smaller band of anticipated molecular weight only in the presence of a cognate protease that can cleave the peptide sequence in each PA-RNAP linker | – | – | –
tobacco etch virus (TEV) protease, expressed as MBP-TEV fusion protein | – | Wild-type TEV protease cleaves the substrate sequence ENLYFQSA (SEQ ID NO: 24) | does not cleave the target substrate sequence ENLYFESA (SEQ ID NO: 25) | the PA-RNAP sensor is proteolyzed to a smaller band of anticipated molecular weight only in the presence of a cognate protease that can cleave the peptide sequence in each PA-RNAP linker
